Laboratory results as given in the supplement of paper PMC7125110.
± gives the standard error. This sample holds only a part of the variants without activity.

B1: glmS ribozyme (parent)
chain: AUAAAAGCGCCAGAACUACAGAAAUGUAGUUGACGAGGAGGAGGUUUAUCGAAUUUUCGGCGGAUGCCUCCAAA

Tests used:
Settings in all cases: with glucosamine-6-phosphate
[1] = variants of: B1; assay: self-cleavage kobs at 160 uM GlcN6P; higher = faster cleavage; RNA array
Outline: (§1)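 kcat and KM were obtained from weighted Michaelis–Menten fits across concentrations of kobs values. Those came from one- or two-exponential decay fits to per-tile medians normalised to baseline and to non-cleaving reference variants. The variants were barcoded ribozymes transcribed in situ by E. coli RNA polymerase on sequenced MiSeq chips and tracked through a hybridised Cy3 probe at 37 °C, with 40 μM to 10 mM glucosamine-6-phosphate in HEPES/KCl/Mg(OAc)2 buffer flowed in.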

[2] = variants of: B1; assay: self-cleavage kobs at 640 uM GlcN6P; higher = faster cleavage; RNA array
Outline: as §1

[3] = variants of: B1; assay: self-cleavage kobs at 2500 uM GlcN6P; higher = faster cleavage; RNA array
Outline: as §1

[4] = variants of: B1; assay: self-cleavage kobs at 10000 uM GlcN6P; higher = faster cleavage; RNA array
Outline: as §1

Variant | self-cleavage kobs at 160 uM GlcN6P [1] | self-cleavage kobs at 640 uM GlcN6P [2] | self-cleavage kobs at 2500 uM GlcN6P [3] | self-cleavage kobs at 10000 uM GlcN6P [4]
C8U G35U G62C | < 1e-05 s⁻¹ | < 1e-05 s⁻¹ | < 1e-05 s⁻¹ | 
A15C U31G U69G | 4.96e-05 ± 2e-05 s⁻¹ | 0.000378 ± 9.2e-05 s⁻¹ |  | 
C50G G60A A64G | 8.18e-05 ± 2.1e-05 s⁻¹ | 6.58e-05 ± 2.3e-05 s⁻¹ | 0.000134 ± 5.2e-05 s⁻¹ | 
A12G G35U G51U C68G U69A | < 1e-05 s⁻¹ | < 1e-05 s⁻¹ |  | 
C16G G38A | < 1e-05 s⁻¹ | < 1e-05 s⁻¹ |  | < 1e-05 s⁻¹
A36U G43A A52U G63A C67A | < 1e-05 s⁻¹ |  |  | 
A15U G32U A36G G43U U65A C67U | < 1e-05 s⁻¹ | < 1e-05 s⁻¹ |  | 
U45A A52U U65G | < 1e-05 s⁻¹ | < 1e-05 s⁻¹ |  | 
G7A A14C A36C A64U | < 1e-05 s⁻¹ | < 1e-05 s⁻¹ | < 1e-05 s⁻¹ | 
A12G G13A U45C U49C C50A A52C A53U G66U | < 1e-05 s⁻¹ |  | < 1e-05 s⁻¹ | 
A36U G41A U54G | < 1e-05 s⁻¹ | < 1e-05 s⁻¹ |  | 
A36G G38U | < 1e-05 s⁻¹ |  |  | < 1e-05 s⁻¹
G37U G44A A52U A53U | < 1e-05 s⁻¹ | < 1e-05 s⁻¹ | < 1e-05 s⁻¹ | 
G43A A52U | < 1e-05 s⁻¹ | < 1e-05 s⁻¹ | < 1e-05 s⁻¹ | 
G29C A36U G43C | < 1e-05 s⁻¹ | < 1e-05 s⁻¹ |  | 
C61U C67U | < 1e-05 s⁻¹ | < 1e-05 s⁻¹ |  | 
U31C U54A C67G | 3.53e-05 ± 9.2e-06 s⁻¹ | 8.75e-05 ± 2.2e-05 s⁻¹ | 7.96e-05 ± 1.7e-05 s⁻¹ | 
A6U A12C U49C U65G C67G | < 1e-05 s⁻¹ |  |  | 
G44U C61A | < 1e-05 s⁻¹ | < 1e-05 s⁻¹ | < 1e-05 s⁻¹ | < 1e-05 s⁻¹
C8A C34U G40A A52U | < 1e-05 s⁻¹ | < 1e-05 s⁻¹ | < 1e-05 s⁻¹ | < 1e-05 s⁻¹
G38A A64G | < 1e-05 s⁻¹ |  |  | 
G29A G32A G62U | < 1e-05 s⁻¹ |  |  | 
G40A G44U C61A | < 1e-05 s⁻¹ | < 1e-05 s⁻¹ |  | < 1e-05 s⁻¹
C16U G32A G51U | < 1e-05 s⁻¹ |  |  | 
C10G G40A C70A | < 1e-05 s⁻¹ | < 1e-05 s⁻¹ | < 1e-05 s⁻¹ | < 1e-05 s⁻¹
U54A G59A C71A | < 1e-05 s⁻¹ | < 1e-05 s⁻¹ |  | 

Variant | self-cleavage kobs at 160 uM GlcN6P [1] | self-cleavage kobs at 640 uM GlcN6P [2] | self-cleavage kobs at 2500 uM GlcN6P [3] | self-cleavage kobs at 10000 uM GlcN6P [4]
G43U U69G | < 1e-05 s⁻¹ | < 1e-05 s⁻¹ |  | < 1e-05 s⁻¹
C10A C34U C50G G62U | 0.00045 ± 0.00013 s⁻¹ | 0.000144 ± 4.8e-05 s⁻¹ | 8.51e-05 ± 2.1e-05 s⁻¹ | 
A12C G37U C50G U54G | 4.97e-05 ± 2.2e-05 s⁻¹ |  | 9.24e-05 ± 3.8e-05 s⁻¹ | 
A15C U30A | 0.000667 ± 0.00019 s⁻¹ | 0.00307 ± 0.00075 s⁻¹ | 0.0188 ± 0.0047 s⁻¹ | 0.0299 ± 0.015 s⁻¹
G35C U54C G63A | < 1e-05 s⁻¹ |  | < 1e-05 s⁻¹ | 
G7U G9C C10G A53C C61U | < 1e-05 s⁻¹ |  | < 1e-05 s⁻¹ | 
G7U A12U U45G | < 1e-05 s⁻¹ | < 1e-05 s⁻¹ | < 1e-05 s⁻¹ | 
C34U G40C U47A C67G | < 1e-05 s⁻¹ |  |  | 
C10U U49G | < 1e-05 s⁻¹ | < 1e-05 s⁻¹ |  | 
A15U G40U A48C | < 1e-05 s⁻¹ | < 1e-05 s⁻¹ |  | 
U45C G62U | < 1e-05 s⁻¹ | < 1e-05 s⁻¹ | < 1e-05 s⁻¹ | < 1e-05 s⁻¹
G26U G29A U54A C70U C71U | 0.000121 ± 3.5e-05 s⁻¹ |  | 5.37e-05 ± 2.3e-05 s⁻¹ | 
C8A A12C | < 1e-05 s⁻¹ | < 1e-05 s⁻¹ | < 1e-05 s⁻¹ | < 1e-05 s⁻¹
G13U C34G | < 1e-05 s⁻¹ | < 1e-05 s⁻¹ | < 1e-05 s⁻¹ | < 1e-05 s⁻¹
G51C U65G | < 1e-05 s⁻¹ | < 1e-05 s⁻¹ | < 1e-05 s⁻¹ | 
A15U A39C C58A C70G | < 1e-05 s⁻¹ |  |  | 
C8U G63A | < 1e-05 s⁻¹ |  | < 1e-05 s⁻¹ | < 1e-05 s⁻¹
A12U C34U A36U U55G | < 1e-05 s⁻¹ | < 1e-05 s⁻¹ |  | < 1e-05 s⁻¹
G41U U46G C61A | < 1e-05 s⁻¹ | < 1e-05 s⁻¹ | < 1e-05 s⁻¹ | 
C10A G13C C16U G51C | < 1e-05 s⁻¹ |  |  | 
U47G C50U U56C A64U | < 1e-05 s⁻¹ | < 1e-05 s⁻¹ | < 1e-05 s⁻¹ | < 1e-05 s⁻¹
C10A U54G C71G | 9.72e-05 ± 3.2e-05 s⁻¹ | 0.000112 ± 5.5e-05 s⁻¹ |  | 
A12C U56A C67A U69G | 8.14e-05 ± 2.1e-05 s⁻¹ | 0.00447 ± 0.0018 s⁻¹ | 0.000144 ± 4.7e-05 s⁻¹ | 
A52C G59A | < 1e-05 s⁻¹ | < 1e-05 s⁻¹ | < 1e-05 s⁻¹ | < 1e-05 s⁻¹
A52C G59U | < 1e-05 s⁻¹ | < 1e-05 s⁻¹ | < 1e-05 s⁻¹ | < 1e-05 s⁻¹
A6U G37C C71U | < 1e-05 s⁻¹ |  |  | 

Variant | self-cleavage kobs at 160 uM GlcN6P [1] | self-cleavage kobs at 640 uM GlcN6P [2] | self-cleavage kobs at 2500 uM GlcN6P [3] | self-cleavage kobs at 10000 uM GlcN6P [4]
U31C G63A | < 1e-05 s⁻¹ |  |  | < 1e-05 s⁻¹
G13A G35A G41U C68U | < 1e-05 s⁻¹ | < 1e-05 s⁻¹ | < 1e-05 s⁻¹ | 
U30A U54C C71U | 0.000251 ± 5.9e-05 s⁻¹ | 0.00109 ± 0.00025 s⁻¹ | 0.00391 ± 0.0014 s⁻¹ | 
G44C G51U C68G | < 1e-05 s⁻¹ |  |  | 
G7C A33C G59A | < 1e-05 s⁻¹ |  |  | 
G35C A64G | < 1e-05 s⁻¹ | < 1e-05 s⁻¹ | < 1e-05 s⁻¹ | 
A33U G51U C58U | < 1e-05 s⁻¹ |  |  | 
G7U U69C | < 1e-05 s⁻¹ |  | < 1e-05 s⁻¹ | 
G7U G35A G37C U46G U47A C70G | < 1e-05 s⁻¹ | < 1e-05 s⁻¹ | < 1e-05 s⁻¹ | 
C10A G41C U46G C68U | < 1e-05 s⁻¹ | < 1e-05 s⁻¹ | < 1e-05 s⁻¹ | 
C8U A33C C71G | < 1e-05 s⁻¹ |  |  | 
U30C A36G C67A | < 1e-05 s⁻¹ |  | < 1e-05 s⁻¹ | 
A39U G51U G62U C71A | < 1e-05 s⁻¹ |  | < 1e-05 s⁻¹ | 
A6G A36U G41A U47A C67G | < 1e-05 s⁻¹ | < 1e-05 s⁻¹ | < 1e-05 s⁻¹ | 
C34U G37U | < 1e-05 s⁻¹ | < 1e-05 s⁻¹ | < 1e-05 s⁻¹ | < 1e-05 s⁻¹
G9A U46G U57A | < 1e-05 s⁻¹ | < 1e-05 s⁻¹ | < 1e-05 s⁻¹ | 
U31C G32C C70G | 0.000701 ± 0.0003 s⁻¹ |  | 0.000104 ± 2.4e-05 s⁻¹ | 
G44A A48G G51U G59A | < 1e-05 s⁻¹ |  | < 1e-05 s⁻¹ | 
A36C G66C | < 1e-05 s⁻¹ | < 1e-05 s⁻¹ |  | < 1e-05 s⁻¹
A39G G43U C58A | < 1e-05 s⁻¹ | < 1e-05 s⁻¹ | < 1e-05 s⁻¹ | 
C50U A52G C70A | 5.11e-05 ± 2.3e-05 s⁻¹ | 0.000125 ± 3.7e-05 s⁻¹ | 6.9e-05 ± 2.3e-05 s⁻¹ | 
A6G A42C | < 1e-05 s⁻¹ | < 1e-05 s⁻¹ | < 1e-05 s⁻¹ | < 1e-05 s⁻¹
G9C C34G C61G | < 1e-05 s⁻¹ |  | < 1e-05 s⁻¹ | < 1e-05 s⁻¹
G32U G38U U54G | < 1e-05 s⁻¹ |  |  | 
A14C C50G C70G | 0.000127 ± 3.4e-05 s⁻¹ | 0.000437 ± 0.00014 s⁻¹ | 0.000126 ± 3.1e-05 s⁻¹ | 7.94e-05 ± 1.8e-05 s⁻¹
C8G A12U G63U | < 1e-05 s⁻¹ | < 1e-05 s⁻¹ | < 1e-05 s⁻¹ | 

Variant | self-cleavage kobs at 160 uM GlcN6P [1] | self-cleavage kobs at 640 uM GlcN6P [2] | self-cleavage kobs at 2500 uM GlcN6P [3] | self-cleavage kobs at 10000 uM GlcN6P [4]
A52U G60C | < 1e-05 s⁻¹ | < 1e-05 s⁻¹ |  | < 1e-05 s⁻¹
G38C G41C | < 1e-05 s⁻¹ | < 1e-05 s⁻¹ | < 1e-05 s⁻¹ | 
G7A G38U G44C U49A A53U U56C | < 1e-05 s⁻¹ |  |  | 
G51C C58A | < 1e-05 s⁻¹ | < 1e-05 s⁻¹ | < 1e-05 s⁻¹ | 
G51U C61U | < 1e-05 s⁻¹ | < 1e-05 s⁻¹ | < 1e-05 s⁻¹ | < 1e-05 s⁻¹
C16A G35U G37U U65G | < 1e-05 s⁻¹ | < 1e-05 s⁻¹ |  | 
C10A A12U U46A | < 1e-05 s⁻¹ | < 1e-05 s⁻¹ |  | 
G43A U55G | < 1e-05 s⁻¹ |  | 4.42e-05 ± 1.1e-05 s⁻¹ | 5.21e-05 ± 7.9e-06 s⁻¹
C8U C34G G41A | < 1e-05 s⁻¹ | < 1e-05 s⁻¹ |  | 
C10A C34A G37A U46C C67G | < 1e-05 s⁻¹ |  |  | 
U2C G9U U56A C71U | < 1e-05 s⁻¹ | < 1e-05 s⁻¹ |  | 
G41U G51C G62A C68U | < 1e-05 s⁻¹ | < 1e-05 s⁻¹ | < 1e-05 s⁻¹ | 
A14C U47G C70A | 6.05e-05 ± 2.8e-05 s⁻¹ | 0.000114 ± 3.4e-05 s⁻¹ | 6.72e-05 ± 1.5e-05 s⁻¹ | 
A33C C34G | < 1e-05 s⁻¹ |  |  | 
C11G A15C A33C C34G U55C | < 1e-05 s⁻¹ | < 1e-05 s⁻¹ |  | 
C16G G59C A64C | < 1e-05 s⁻¹ |  |  | 
G38U G44C U56C U57G C70U | < 1e-05 s⁻¹ |  | < 1e-05 s⁻¹ | 
A12U A33C A39G C50G A52G | < 1e-05 s⁻¹ | < 1e-05 s⁻¹ |  | 
G7A G35A G51C | < 1e-05 s⁻¹ |  | < 1e-05 s⁻¹ | 
G43A U54C U69G | < 1e-05 s⁻¹ | < 1e-05 s⁻¹ |  | < 1e-05 s⁻¹
A6C G29C C58G C71A | 6.35e-05 ± 1.9e-05 s⁻¹ | 0.000108 ± 4.5e-05 s⁻¹ |  | 
G43C U55G | < 1e-05 s⁻¹ |  |  | 
A14C C50G | 5.43e-05 ± 1.5e-05 s⁻¹ | 0.000625 ± 0.00028 s⁻¹ | 4.32e-05 ± 1.3e-05 s⁻¹ | 
